Measurements as given in patent US8975044B2, “Polynucleotides encoding for frizzled-binding agents and uses thereof” (OncoMed Pharmaceuticals, Inc., priority 2008, dated 2015).
Positions count from the first letter of the chain named.

Assays:
PN4 pancreatic tumor = PN4 pancreatic tumor recurrence study; type: in vivo, Nod-Scid mice; conditions: gemcitabine 75 mg/kg once per week for 5 weeks, then antibody 10 mg/kg once per week
Protocol: PN4 pancreatic tumor recurrence study with 18R5 mAb: PN4 pancreatic tumor cells were injected into Nod-Scid mice and allowed to grow until the tumors had reached approximately 250 mm^3. The animals were given gemcitabine (75 mg/kg, once per week) for 5 weeks until tumors had regressed. The animals were randomized into two groups and given control antibody (black squares) or anti-FZD 18R5 (gray open circles). Antibodies were dosed at 10 mg/kg once per week.

PE13 breast tumor = PE13 breast tumor recurrence study; type: in vivo, Nod-Scid mice; conditions: taxol 15 mg/kg twice per week + 18R5 20 mg/kg once per week vs taxol + control antibody; taxol stopped at day 70
Protocol: PE13 breast tumor recurrence study with 18R5 mAb: PE13 breast tumor cells were injected into Nod-Scid mice and allowed to grow until the tumors had reached approximately 100 mm^3. The animals were randomized into two groups (n=10) and given taxol (15 mg/kg, twice per week)+Control antibody (black squares) or the same dose of taxol+Anti-FZD 18R5 (gray open circles). Antibodies were dosed at 20 mg/kg once per week. Taxol treatments were stopped at day 70 and the antibody treatments continued.

[1] = system: OMP-C28 colon tumor xenografts; assay: OMP-C28 colon tumor xenograft growth; type: in vivo, NOD/SCID mice; conditions: 18R5 10 mg/kg IP twice weekly, single agent; p=0.02
Protocol: In another embodiment anti-FZD antibodies were analyzed for their ability to reduce the growth of OMP-C28 colon tumor xenografts. Dissociated human OMP-C28 cells (10,000 per animal) were injected subcutaneously into 6-8 week old male NOD/SCID mice. Tumor growth was monitored weekly and tumor measurements were initiated once tumors were palpable. On day 24 mice with average tumor volume of 129 mm^3 were randomized into 4 groups of 10 animals each. Animals were injected with either control antibody, or 18R5 IgG antibody (10 mg/kg), or irinotecan (7.5 mg/kg) or combination of both 18R5 and irinotecan. Administration of the antibodies and irinotecan was performed via injection into the intra-peritoneal cavity, twice weekly. Tumors were measured twice a week and tumor volume was determined using the formula ½(a×b^2); where a=length, and b=breadth. Data are expressed as mean and mean±S.E.M. Group means were compared using Student's two-tailed, unpaired t test.

OMP-Pn4 tumors = assay: Limiting dilution assay of cancer stem cell frequency in treated OMP-Pn4 tumors; type: in vivo, NOD/SCID mice; conditions: tumors after 41 days treatment; 30-810 cells re-injected, 75 days; L-Calc
Protocol: Control and treated tumors from the OMP-Pn4 xenograft study described above (Example 7) were harvested at the end of 41 days treatment. The tumors were processed and dissociated into single cells. Tumor cells were then incubated with biotinylated mouse antibodies (α-mouse CD45-biotin 1:200 dilution and rat α-mouse H2 Kd-biotin 1:100 dilution, BioLegend, San Diego, Calif.) on ice for 30 min followed by addition of streptavidin-labeled magnetic beads (Invitrogen, Carlsbad, Calif.) to remove mouse cells. The remaining human cells in the suspension were collected, counted and diluted to appropriate cell doses (30, 90, 270 and 810 cells), mixed in the mixture of 1:1 (v/v) FACS buffer and Matrigel and injected subcutaneously in NOD/SCID mice (10 mice per cell dose per treatment group). Each dot in FIG. 40 represents the tumor volume of an individual mouse. The percentage of mice with detectable tumors was determined in all groups injected with anti-FZD antibody treated tumor cells and compared to the percentage of mice with detectable tumors in the controls. For example, the number of mice injected with 810 control-treated tumor cells that have detectable tumors was determined and compared to the number of mice injected with 810 FZD-antibody treated tumor cells that have detectable tumors. […]

FZD8 [2] = biological target: T1, FZD8 (Homo sapiens, UniProt Q9H461, D83Q/P82S); assay: Epitope mapping by FACS on FZD8 Fri domain variants on HEK293 cells; type: binding; conditions: amino acid residues 82-83 mutated from PD to SQ
T1 construct: N-terminus of the Fri domain of FZD8 in turn fused to the transmembrane domain and intracellular domain of CD4 protein; expressed in transfected cells; host or cells: HEK293
T1 sequence (Q9H461 28-158 P82S/D83Q): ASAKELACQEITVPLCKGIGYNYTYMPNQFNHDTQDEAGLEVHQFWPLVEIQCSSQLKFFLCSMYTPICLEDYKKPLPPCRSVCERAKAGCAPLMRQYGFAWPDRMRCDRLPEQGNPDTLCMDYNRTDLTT
Protocol: (§1) To identify the FZD epitope recognized by the 18R8 IgG antibody, epitope mapping was performed. Flow cytometry analysis of cell surface expressed FZD was utilized to measure antibody binding. Mammalian expression plasmid vectors comprising a CMV promoter upstream of polynucleotides that encode an N-terminal signal sequence FLAG epitope tag fused to the N-terminus of the Fri domain of FZD8 in turn fused to the transmembrane domain and intracellular domain of CD4 protein were generated by standard recombinant technology. This expression construct allows expression of the FZD8 Fri domain on the cell surface, as well as expression of a FLAG epitope tag to monitor expression. Site-direct mutagenesis was then used to modify selected amino acids within the extracellular domain of FZD. HEK293 cells were co-transfected with expression vectors encoding the FZD and the transfection marker GFP. Forty-eight hours post-transfection, cells were collected in suspension and incubated on ice with anti-FZD antibody or control IgG to detect background antibody binding. The cells were washed and primary antibodies detected with anti-antibody secondary antibodies conjugated to a fluorescent chromophore. Labeled cells were then analyzed by flow cytometry to measure the binding of anti-FZD antibody to cell surface FZD.
(§2) Epitope mapping for the anti-FZD antibody 44R24 was performed in a manner similar to that described above in Example 5 for the antibodies 18R8 and 18R5. The ability of 44R24 to bind to a similar epitope as 18R8 was assessed by flow cytometry using a series of amino acid variants of FZD8 previously shown to disrupt binding of 18R8 (see Example 5 and FIGS. 6 and 7).

FZD8 [3] = biological target: T2, FZD8 (Homo sapiens, UniProt Q9H461, S109Q); assay: as above; type: binding; conditions: amino acid 109S changed to 109Q
T2 construct: N-terminus of the Fri domain of FZD8 in turn fused to the transmembrane domain and intracellular domain of CD4 protein; expressed in transfected cells; host or cells: HEK293
T2 sequence (Q9H461 28-158 S109Q): T1 sequence (Q9H461 28-158 P82S/D83Q) with S55P, Q56D, S82Q
Protocol: as §1, §2

B1: 18R5: human anti-FZD antibody; VH SEQ ID NO:10 (as 18R8), VL SEQ ID NO:14; binds FZD1, 2, 5, 7, 8 (antibody, V domains shown)
VH: EVQLVESGGGLVQPGGSLRLSCAASGFTFSHYTLSWVRQAPGKGLEWVSVISGDGSYTYYADSVKGRFTISSDNSKNTLYLQMNSLRAEDTAVYYCARNFIKYVFANWGQGTLVTVSS
VL: DIELTQPPSVSVAPGQTARISCSGDNIGSFYVHWYQQKPGQAPVLVIYDKSNRPSGIPERFSGSNSGNTATLTISGTQAEDEADYYCQSYANTLSLVFGGGTKLTVLG
modifications: 18R5/18R8 heavy chain variable region (VH); 18R5 light chain variable region (VL)
With B1 the “tumor recurrence after gemcitabine treatment” value (PN4 pancreatic tumor) was “delay tumor recurrence”, the “tumor regression and recurrence” value (PE13 breast tumor) was “enhance the rate of tumor regression and to delay tumor recurrence” and the “reduction in tumor growth” value [1] was 40%. The “cancer stem cell frequency” value (OMP-Pn4 tumors) was “reduced cancer stem cell frequency”.

B2: 18R8: human anti-FZD antibody from phage display; VH SEQ ID NO:10, VL SEQ ID NO:12; binds FZD1, 2, 5, 7, 8 (antibody, V domains shown)
VH: B1 VH
VL: DIELTQPPSVSVAPGQTARISCSGDKLGKKYASWYQQKPGQAPVLVIYEKDNRPSGIPERFSGSNSGNTATLTISGTQAEDEADYYCSSFAGNSLEVFGGGTKLTVLG
modifications: 18R5/18R8 heavy chain variable region (VH); 18R8 light chain variable region (VL)
B2 was tested, and the “binding to FZD8 variant” value (FZD8 [2]) was “largely unaffected” and the “binding to FZD8 variant” value (FZD8 [3]) was “no appreciable effect”.
